Patent US7501496 (ROCHE PALO ALTO, dated 2009)

Columns and labels:
[1] = biological target: T1, human OX40L expressed on cells (K562-hOX40L cells; HUVEC) (human, UniProt P23510 1-183); test: cell-based or functional assay
T1 sequence (looked up): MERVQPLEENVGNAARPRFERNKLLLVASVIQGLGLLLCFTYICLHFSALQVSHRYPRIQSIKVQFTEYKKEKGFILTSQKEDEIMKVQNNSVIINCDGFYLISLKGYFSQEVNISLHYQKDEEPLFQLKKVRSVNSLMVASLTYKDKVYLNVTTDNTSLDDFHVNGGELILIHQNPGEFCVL

[2] = biological target: T2, Recombinant soluble human OX40L fused to a Histidine tag (human, UniProt P23510 51-183); test: SPR, Biacore 3000; antibody captured via anti-Fcγ on CM5, hOX40L-His as analyte, 1:1 Langmuir fit; native hOX40L-His as analyte in SPR, antibody captured via Anti-hFcg, HBS-P pH 7.4, 25 C
T2 construct: extracellular domain; there it was reduced and LDS-denatured; also called hOX40L-His; hOx40L-His; not shown: Histidine tag
T2 sequence (looked up): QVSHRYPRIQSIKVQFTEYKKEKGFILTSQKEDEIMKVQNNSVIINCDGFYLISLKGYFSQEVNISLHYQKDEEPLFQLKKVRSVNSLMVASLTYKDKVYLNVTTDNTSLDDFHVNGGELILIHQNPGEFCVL
Protocol: (§1) Instrument: Biacore 3000, running and reaction buffer: HBS-P (10 mM HEPES, 150 mM NaCl, 0.005% Tween 20, ph 7.4), 25° C. Injection of analyte was performed at 7 concentrations between 0.78 nM and 100 nM for 3 minutes and washed with HBS-P for 5 minutes. Regeneration of the surface (carboxymethylated dextrane surface, CM) was performed by two injections of 10 mM Glycine pH 2.0 for 1 min each. The chip, assay format and sequence of injections and kinetic data correspond to the description in the following table. Kinetic data were calculated by fitting kinetic data to a 1:1 Langmuir binding model.

[3] = biological target: T2, Recombinant soluble human OX40L fused …; test: SPR competition; hOX40L-His (10 nM) preincubated with antibody (0.78-100 nM), injected over immobilized OX40-hFc; native hOX40L-His (10 nM) preincubated with the antibody in solution, competition for immobilized OX40-hFc
Protocol: Instrument: Biacore 3000, running and reaction buffer: HBS-P (10 mM HEPES, 150 mM NaCl, 0.005% Tween 20, ph 7.4), 25° C. Prior to injection the analyte (10 nM) and competitor (eight concentrations between 0.78 nM and 100 nM) were preincubated for at least 20 min at 22° C. Injection of analyte+/−competitor was performed for 3 minutes and washed with HBS-P for three minutes. Regeneration of the surface was performed by two injections of 10 mM Glycine pH 2.0 for 1 min each. The chip, assay format and sequence of injections and kinetic data correspond to the description in the following table 3.

[4] = biological target: T2, Recombinant soluble human OX40L fused …; test: SPR, Biacore 3000; antibody captured via anti-Fcγ on CM5, hOX40L-His as analyte, 1:1 Langmuir fit
Protocol: as §1

B1: Human anti-human OX40L monoclonal antibody LC.005 (antibody, IgG1, V domains shown)
VH: QVQLVESGGGVVQPGRSLRLSCAASGFTFSNFGMHWVRQAPGKGLEWVAAIWYDGHDKYYSYYVKGRFTISRDNSKNTLFLQMNSLRAEDTAVYYCARDSSSWYRYFDYWGQGTLVTVSS
VL: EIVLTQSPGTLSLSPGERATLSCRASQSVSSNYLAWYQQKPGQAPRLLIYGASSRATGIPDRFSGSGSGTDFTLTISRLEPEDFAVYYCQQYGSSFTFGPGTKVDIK
notes: also called LC2010-005; hu-Mab<hOX40L>LC.005
For B1, the “IC50, IL-2 release of PHA-activated PBL co-stimulated with K562_OX40L cells” value [1] was 10 nM, the Kd [2] was under 0.015 nM and the koff [2] was under 1e-06 s⁻¹. The kon [2] was 68400 M⁻¹ s⁻¹ and the IC50 [3] was 3 nM.

B2: Human anti-human OX40L monoclonal antibody LC.010 (antibody, IgG1, V domains shown)
VH: QVQLVESGGGVVQPGRSLRLSCAASGFTFSNFGMHWVRQAPGKGLEWVAAIWYDGHDKYYAYYVKGRFTISRDNSKNTLFLQMNSLRAEDTAVYYCARDSSSWYRYFDYWGQGTLVTVSS
VL: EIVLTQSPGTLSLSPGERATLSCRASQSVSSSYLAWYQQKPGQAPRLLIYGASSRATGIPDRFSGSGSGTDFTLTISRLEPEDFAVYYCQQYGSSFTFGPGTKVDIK
notes: also called LC2010-010; hu-Mab<hOX40L>LC.010
B2 gave a Kd [4] of 0.399 nM, a koff [4] of 2.5e-05 s⁻¹ and a kon [4] of 62500 M⁻¹ s⁻¹.

B3: Human anti-human OX40L monoclonal antibody LC.033 (antibody, V domains shown)
VH: QKQLVEFGGGVVQPGRSLRLSCAASGFTFSNYGMHWVRQAPGKGLEWVAVIWNDGSNKYYVDSVKGRFIISRDNSKNTLYLQMNSLRAEDTAVYYCARDRMGIYYYGMDVWGQGTTVTVSS
VL: EIVLTQSPATLSLSPGERATLSCRASQGVSRYLAWYQQKPGQAPRLLIYDASNRATGIPARVSGSGPGTDFTLTISSLEPEDFAVDYCQQRSNWQYTFGQGTKLEI
notes: also called LC2010-033; hu-Mab<hOX40L>LC.033
Binder B3 has a Kd [4] of under 0.014 nM, a koff [4] of 2.09e-07 s⁻¹ and a kon [4] of 70100 M⁻¹ s⁻¹.
